Measurements: article PMC10397247

Columns and labels:
O1-bH = target: T1, O1-bH; assay: two-hybrid library CCNG1;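 further: natural log of median RNA to DNA barcode read ratio; higher means stronger binding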
T1 chain: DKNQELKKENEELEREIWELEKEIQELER

O10-bH = target: T2, O10-bH; assay: two-hybrid library CCNG1;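 further: natural log of median RNA to DNA barcode read ratio; higher means stronger binding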
T2 chain: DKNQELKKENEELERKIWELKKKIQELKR

O11-bH = target: T3, O11-bH; assay: two-hybrid library CCNG1;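 further: natural log of median RNA to DNA barcode read ratio; higher means stronger binding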
T3 chain: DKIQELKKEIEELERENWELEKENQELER

O12-bH = target: T4, O12-bH; assay: two-hybrid library CCNG1;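 further: natural log of median RNA to DNA barcode read ratio; higher means stronger binding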
T4 chain: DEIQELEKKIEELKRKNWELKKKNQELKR

O13-bH = target: T5, O13-bH; assay: two-hybrid library CCNG1
T5 chain: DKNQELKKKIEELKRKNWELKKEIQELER

O14-bH = target: T6, O14-bH; assay: two-hybrid library CCNG1
T6 chain: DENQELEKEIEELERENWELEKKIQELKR

O15-bH = target: T7, O15-bH; assay: two-hybrid library CCNG1
T7 chain: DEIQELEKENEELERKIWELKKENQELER

O16-bH = target: T8, O16-bH; assay: two-hybrid library CCNG1
T8 chain: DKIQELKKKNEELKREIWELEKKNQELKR

O2-bH = target: T9, O2-bH; assay: two-hybrid library CCNG1
T9 chain: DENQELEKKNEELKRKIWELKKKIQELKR

O3-bH = target: T10, O3-bH; assay: two-hybrid library CCNG1
T10 chain: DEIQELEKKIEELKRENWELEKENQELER

O4-bH = target: T11, O4-bH; assay: two-hybrid library CCNG1
T11 chain: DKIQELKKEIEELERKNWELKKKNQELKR

O5-bH = target: T12, O5-bH; assay: two-hybrid library CCNG1
T12 chain: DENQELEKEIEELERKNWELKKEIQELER

O6-bH = target: T13, O6-bH; assay: two-hybrid library CCNG1
T13 chain: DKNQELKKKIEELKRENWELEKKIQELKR

O7-bH = target: T14, O7-bH; assay: two-hybrid library CCNG1
T14 chain: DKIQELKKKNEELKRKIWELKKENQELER

O8-bH = target: T15, O8-bH; assay: two-hybrid library CCNG1
T15 chain: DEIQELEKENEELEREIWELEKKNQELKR

O9-bH = target: T16, O9-bH; assay: two-hybrid library CCNG1
T16 chain: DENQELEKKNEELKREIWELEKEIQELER

4H1347-bA = target: T17, 4H1347-bA; assay: two-hybrid library CCNG1
T17 chain: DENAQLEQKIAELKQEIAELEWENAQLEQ

4H145-bA = target: T18, 4H145-bA; assay: two-hybrid library CCNG1
T18 chain: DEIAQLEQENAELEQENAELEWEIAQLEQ

4H2619-bA = target: T19, 4H2619-bA; assay: two-hybrid library CCNG1
T19 chain: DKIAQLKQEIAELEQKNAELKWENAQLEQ

4H2691-bA = target: T20, 4H2691-bA; assay: two-hybrid library CCNG1
T20 chain: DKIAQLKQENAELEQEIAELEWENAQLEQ

4H3070-bA = target: T21, 4H3070-bA; assay: two-hybrid library CCNG1
T21 chain: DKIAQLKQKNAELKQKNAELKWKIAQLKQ

4H342-bA = target: T22, 4H342-bA; assay: two-hybrid library CCNG1
T22 chain: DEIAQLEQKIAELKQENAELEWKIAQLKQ

4H3632-bA = target: T23, 4H3632-bA; assay: two-hybrid library CCNG1
T23 chain: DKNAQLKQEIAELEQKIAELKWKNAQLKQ

4H496-bA = target: T24, 4H496-bA; assay: two-hybrid library CCNG1
T24 chain: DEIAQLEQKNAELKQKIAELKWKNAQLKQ

P10mS = target: T25, P10mS; assay: two-hybrid library CCNG1
T25 chain: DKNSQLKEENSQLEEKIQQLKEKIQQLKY

P11mS = target: T26, P11mS; assay: two-hybrid library CCNG1
T26 chain: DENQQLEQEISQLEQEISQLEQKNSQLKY

P12mS = target: T27, P12mS; assay: two-hybrid library CCNG1
T27 chain: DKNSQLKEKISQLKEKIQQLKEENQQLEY

P3mS = target: T28, P3mS; assay: two-hybrid library CCNG1
T28 chain: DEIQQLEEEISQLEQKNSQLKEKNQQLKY

P4mS = target: T29, P4mS; assay: two-hybrid library CCNG1
T29 chain: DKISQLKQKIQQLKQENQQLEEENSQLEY

P5mS = target: T30, P5mS; assay: two-hybrid library CCNG1
T30 chain: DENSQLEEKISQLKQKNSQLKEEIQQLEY

P6mS = target: T31, P6mS; assay: two-hybrid library CCNG1
T31 chain: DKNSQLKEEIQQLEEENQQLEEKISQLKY

P7mS = target: T32, P7mS; assay: two-hybrid library CCNG1
T32 chain: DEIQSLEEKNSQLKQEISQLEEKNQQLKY

P8mS = target: T33, P8mS; assay: two-hybrid library CCNG1
T33 chain: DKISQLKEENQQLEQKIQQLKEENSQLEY

P9mS = target: T34, P9mS; assay: two-hybrid library CCNG1
T34 chain: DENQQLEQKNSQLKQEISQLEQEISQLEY

P5SH = target: T35, P5SH; assay: two-hybrid library CCNG1
T35 chain: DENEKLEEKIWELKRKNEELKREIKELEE

P6SH [1] = target: T36, P6SH; assay: two-hybrid library CCNG1
T36 chain: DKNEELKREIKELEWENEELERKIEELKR

P7SH = target: T37, P7SH; assay: two-hybrid library CCNG1
T37 chain: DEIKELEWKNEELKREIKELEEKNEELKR

P8SH = target: T38, P8SH; assay: two-hybrid library CCNG1
T38 chain: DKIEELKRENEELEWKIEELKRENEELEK

P6SH [2] = target: T36, P6SH; assay: two-hybrid library CCmax; conditions: mean of both orientations
P4SN [3] = target: T39, P4SN; assay: two-hybrid library CCNG1; conditions: mean of both orientations
T39 chain: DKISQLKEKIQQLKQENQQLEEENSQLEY

P4SN [4] = target: T39, P4SN; assay: two-hybrid library CCmax
Core_NIII-es_KKEK = target: T40, Core_NIII-es_KKEK; assay: two-hybrid library CCmax; conditions: mean of both orientations
T40 chain: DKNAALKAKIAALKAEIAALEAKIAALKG

Core_NNNN-es_KKKE = target: T41, Core_NNNN-es_KKKE; assay: two-hybrid library CCmax; conditions: mean of both orientations
T41 chain: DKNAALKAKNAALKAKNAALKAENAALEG

Core_NNIN-es_KEKK = target: T42, Core_NNIN-es_KEKK; assay: two-hybrid library CCmax; conditions: mean of both orientations
T42 chain: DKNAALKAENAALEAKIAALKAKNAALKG

Core_NINN-es_KEKE = target: T43, Core_NINN-es_KEKE; assay: two-hybrid library CCmax; conditions: mean of both orientations
T43 chain: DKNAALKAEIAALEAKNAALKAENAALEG

Core_NNNI-es_KEKE = target: T44, Core_NNNI-es_KEKE; assay: two-hybrid library CCmax; conditions: mean of both orientations
T44 chain: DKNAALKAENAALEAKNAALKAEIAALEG

Core_IINI-es_KEEE = target: T45, Core_IINI-es_KEEE; assay: two-hybrid library CCmax; conditions: mean of both orientations
T45 chain: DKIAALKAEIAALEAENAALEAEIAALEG

Core_INNN-es_KKEE = target: T46, Core_INNN-es_KKEE; assay: two-hybrid library CCmax; conditions: mean of both orientations
T46 chain: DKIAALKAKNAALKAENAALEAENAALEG

DKNQELKKENEELEREIWELEKEIQELER [O1-bH] gave an interaction score (O1-bH) of -0.259, an interaction score (O10-bH) of 0.782 and an interaction score (O11-bH) of -0.522. It also gave an interaction score (O12-bH) of -0.434, an interaction score (O13-bH) of 0.467 and an interaction score (O14-bH) of -0.549. For the same binder, the interaction score (O15-bH) was -0.695, the interaction score (O16-bH) was -0.655 and the interaction score (O2-bH) was -0.214. For the same binder, the interaction score (O3-bH) was -1.49, the interaction score (O4-bH) was -1.15 and the interaction score (O5-bH) was -1.92. The interaction score (O6-bH) was -0.62, the interaction score (O7-bH) was -0.877 and the interaction score (O8-bH) was -2.35. It also gave an interaction score (O9-bH) of -2.31.

DENAQLEQKIAELKQEIAELEWENAQLEQ [4H1347-bA] showed an interaction score (4H1347-bA) of -0.84, an interaction score (4H145-bA) of -0.0112 and an interaction score (4H2619-bA) of -0.421. For the same binder, the interaction score (4H2691-bA) was -0.56, the interaction score (4H3070-bA) was -0.786 and the interaction score (4H342-bA) was -0.567. It also gave an interaction score (4H3632-bA) of 1.92 and an interaction score (4H496-bA) of -0.596.

With DKNSQLKEENSQLEEKIQQLKEKIQQLKY [P10mS] the interaction score (P10mS) was -0.344, the interaction score (P11mS) was 0.347 and the interaction score (P12mS) was 0.126. The interaction score (P3mS) was -1.79, the interaction score (P4mS) was 0.178 and the interaction score (P5mS) was -1.28. The interaction score (P6mS) was -2.03, the interaction score (P7mS) was 0.649 and the interaction score (P8mS) was -0.478. For the same binder, the interaction score (P9mS) was -0.677.

In the case of DENEKLEEKIWELKRKNEELKREIKELEE [P5SH], the interaction score (P5SH) is reported as -0.706, the interaction score (P6SH [1]) is reported as 1.84 and the interaction score (P7SH) is reported as -0.619. The interaction score (P8SH) was 0.809 and the interaction score (P6SH [2]) was 0.801.

In the case of DEIQQLEEEISQLEQKNSELKEKNQELKY [P3SN], the interaction score (P4SN [3]) is reported as 1.25 and the interaction score (P4SN [4]) is reported as -0.993.

DENAALEAEIAALEAKIAALKAEIAALEG [Core_NIII-es_EEKE] showed an interaction score (Core_NIII-es_KKEK) of 2.17.

With DENAALEAENAALEAENAALEAKNAALKG [Core_NNNN-es_EEEK] the interaction score (Core_NNNN-es_KKKE) was 0.962.

Work on DENAALEAKNAALKAEIAALEAENAALEG [Core_NNIN-es_EKEE] yielded an interaction score (Core_NNIN-es_KEKK) of 1.32.

DENAALEAKIAALKAENAALEAKNAALKG [Core_NINN-es_EKEK] gave an interaction score (Core_NINN-es_KEKE) of 1.51.

In the case of DENAALEAKNAALKAENAALEAKIAALKG [Core_NNNI-es_EKEK], the interaction score (Core_NNNI-es_KEKE) is reported as 2.1.

Work on DEIAALEAKIAALKAKNAALKAKIAALKG [Core_IINI-es_EKKK] yielded an interaction score (Core_IINI-es_KEEE) of 2.08.

Work on DEIAALEAENAALEAKNAALKAKNAALKG [Core_INNN-es_EEKK] yielded an interaction score (Core_INNN-es_KKEE) of 1.67.
